In patent US20210380675A1 (Kyowa Kirin, published 2021):

How the values were obtained:
[1] = target: T1, human IL-36γ, truncated (human, UniProt Q9NZH8 18-169); experiment: SPR, Biacore, 1:1 Langmuir fit; heads of c3 and c4 printed swapped
T1 construct: Bought from R&D Systems (cat 6835-IL); also called human IL-36 gamma; hIL-36gamma
T1 sequence: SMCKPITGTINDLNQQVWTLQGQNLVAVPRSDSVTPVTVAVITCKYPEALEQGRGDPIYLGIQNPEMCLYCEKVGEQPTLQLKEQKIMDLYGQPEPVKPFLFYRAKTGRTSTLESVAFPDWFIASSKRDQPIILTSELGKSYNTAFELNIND
Description: (§1) The humanized antibodies obtained in Example 6 were tested for their binding to recombinant human or cynomolgus macaque IL36a and IL-36γ in Biacore assays. The association time was set to 60 seconds, and the final dissociation time was set to 600 seconds. Equilibrium dissociation constant KD (kd/ka) of exemplary antibodies was determined using a 1:1 Langmuir fit model (see Tables 17-18 below).

[2] = target: T2, cynomolgus IL-36α, truncated (cynomolgus macaque (Macaca fascicularis), UniProt Q9UHA7 14-158 (human entry), limits assumed); experiment: as above
T2 construct: Untagged after removal of the His-SUMO tag; also called cynomolgus IL-36 alpha; cyIL-36alpha
T2 chain: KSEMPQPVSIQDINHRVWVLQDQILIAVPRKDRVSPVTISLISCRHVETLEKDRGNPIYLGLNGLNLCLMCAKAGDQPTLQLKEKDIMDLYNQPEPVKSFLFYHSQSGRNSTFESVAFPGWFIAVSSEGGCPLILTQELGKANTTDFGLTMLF
Description: as §1

[3] = target: T3, cynomolgus IL-36γ, truncated (cynomolgus macaque (Macaca fascicularis), UniProt Q9NZH8 18-167 (human entry), limits assumed); experiment: as above
T3 construct: Untagged after removal of the His-SUMO tag; also called cynomolgus IL-36 gamma; cyIL-36gamma
T3 chain: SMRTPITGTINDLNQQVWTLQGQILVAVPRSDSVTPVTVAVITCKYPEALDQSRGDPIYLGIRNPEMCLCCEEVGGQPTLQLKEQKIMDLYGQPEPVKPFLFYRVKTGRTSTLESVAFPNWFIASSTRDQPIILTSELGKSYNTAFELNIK
Description: as §1

[4] = target: T4, human IL-36α(R12), truncated (human, UniProt Q9UHA7 6-158); experiment: as above
T4 construct: Untagged after removal of the His-SUMO tag; also called hIL-36alpha
T4 chain: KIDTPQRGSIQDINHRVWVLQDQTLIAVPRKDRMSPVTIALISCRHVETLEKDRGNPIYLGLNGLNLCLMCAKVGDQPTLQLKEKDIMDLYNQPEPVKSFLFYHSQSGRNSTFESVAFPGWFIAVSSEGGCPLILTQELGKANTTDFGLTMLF
Description: as §1

[5] = target: T1, human IL-36γ, truncated; experiment: SPR, Biacore, 1:1 Langmuir fit
Description: as §1

[6] = target: T2, cynomolgus IL-36α, truncated; experiment: SPR, Biacore, 1:1 Langmuir fit
Description: as §1

[7] = target: T3, cynomolgus IL-36γ, truncated; experiment: SPR, Biacore, 1:1 Langmuir fit
Description: as §1

[8] = target: T4, human IL-36α(R12), truncated; experiment: SPR, Biacore, 1:1 Langmuir fit
Description: as §1

[9] = target: T5, human IL-36α(Q12), truncated (human, UniProt Q9UHA7 6-158); experiment: SPR, Biacore T200, antibody on chip, IL-36 as analyte, 1:1 Langmuir fit
T5 construct: Untagged after removal of the His-SUMO tag
T5 sequence: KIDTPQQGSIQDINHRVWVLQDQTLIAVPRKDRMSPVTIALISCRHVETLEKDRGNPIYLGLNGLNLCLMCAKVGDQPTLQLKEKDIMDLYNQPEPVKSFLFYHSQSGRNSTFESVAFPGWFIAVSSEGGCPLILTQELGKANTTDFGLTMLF
Description: (§2) Antibodies were further tested for their binding to recombinant human or cynomolgus IL36α, IL-36γ in Biacore assays. In order to kinetically analyze the binding activity of the IL-36α and IL-36γ dual antagonist antibodies, the binding activity to human and cynomolgus IL-36α and IL-36γ was measured by surface plasmon resonance method (SPR). All of the following manipulations were carried out using a Biacore T200 (GE Healthcare Life Sciences, Pittsburgh, Pa.).
(§3) To determine antibody affinity to human and cynomolgus IL36, recombinant antibodies were immobilized on a CM5 sensor chip (cat# BR100012, GE Healthcare Life Sciences, Pittsburgh, Pa.) by an amine coupling chemistry. In particular, the kinetic assay was carried out by immobilizing on the chip approximately 2000 RU of recombinant antibody. Thereafter, recombinant human or cynomolgus IL36 proteins, serially diluted from a high concentration, were allowed to run at a flow rate of 30 μL/min onto the chip for 420 seconds. The dissociation time was 3600 seconds and the binding curves were measured at 25° C. Regeneration was performed with 10 mM glycine pH 1.5 for 30s. Alternatively, the analytes were injected with increasing concentrations in a single cycle, the surface not being regenerated between injections, using a method referred to as “single cycle kinetics.” In particular, either anti-human or anti-mouse Fc specific antibodies were immobilized on a CM5 sensor chip (cat# BR100012, GE Healthcare Life Sciences, Pittsburgh, Pa.) by an amine coupling chemistry. Thereafter, IL-36α and IL-36γ dual antagonist mouse/human chimeric or mouse antibodies were captured at approximately 200 RUs, followed by injections of increasing concentrations of recombinant human and cynomolgus IL36 proteins. The association time was 300 seconds, and the final dissociation time was 1200 seconds. At the end of the analyte injections, the surface was regenerated with either 3M MgCl₂ (anti-human Fc capture antibody) for 30 s or 10 mM glycine-HCl pH 1.7 for 180 s (anti-mouse IgG capture antibody).
(§4) The raw data were double referenced by subtraction of the signals from a reference flow cell without immobilized ligand and a buffer blank. The sensorgram corresponding to each concentration was obtained.

[10] = target: T1, human IL-36γ, truncated; experiment: cell-based or functional assay
[11] = target: T3, cynomolgus IL-36γ, truncated; experiment: cell-based or functional assay
[12] = target: T2, cynomolgus IL-36α, truncated; experiment: cell-based or functional assay
[13] = target: T4, human IL-36α(R12), truncated; experiment: cell-based or functional assay
[14] = target: T1, human IL-36γ, truncated; experiment: SPR, Biacore T200, antibody on chip, IL-36 as analyte, 1:1 Langmuir fit
Description: as §2, §3, §4

[15] = target: T4, human IL-36α(R12), truncated; experiment: as above
Description: as §2, §3, §4

[16] = target: T1, human IL-36γ, truncated; experiment: cell-based or functional assay; remark: listed apart in the source
[17] = target: T4, human IL-36α(R12), truncated; experiment: cell-based or functional assay

B1: 144D464A LV10re HV10b (antibody, V domains shown)
VH: QVQLVQSGAEVKKPGASVKVSCKASGFNIKDTYIHWVRQAPGQGLEWIGRIDPAIGTTRYDPKFQGRATITTDTSTSTVYLEFSSLRSEDTAVYYCARLHYFGNNFFFDYWGQGTLVTVSS
VL: QAVVTQEPSLTVSPGGTVTLTCRSSSGAVTTSNYANWVQEKPGQLFAGLIGGTNDRAPGVPARFSGSLLGGKAALTLSGAQPEDEAIYFCALWFSNHWVFGGGTKLTVL
notes: Humanized
koff [1]: 0.000425 s⁻¹
kon [1]: 353000 M⁻¹ s⁻¹
koff [2]: 0.000415 s⁻¹
kon [2]: 372000 M⁻¹ s⁻¹
koff [3]: 0.00047 s⁻¹
kon [3]: 460000 M⁻¹ s⁻¹
koff [4]: 0.000429 s⁻¹
kon [4]: 229000 M⁻¹ s⁻¹
Kd [5]: 1.2 nM
Kd [6]: 1.12 nM
Kd [7]: 1.02 nM
Kd [8]: 1.87 nM

B2: 144D464A LV11re HV10b (antibody, V domains shown)
VH: QVQLVQSGAEVKKPGASVKVSCKASGFNIKDTYIHWVRQAPGQGLEWIGRIDPAIGTTRYDPKFQGRATITTDTSTSTVYLEFSSLRSEDTAVYYCARLHYFGNNFFFDYWGQGTLVTVSS
VL: QAVVTQEPSLTVSPGGTVTLTCRSSSGAVTTSNYANWVQEKPGQLFAGLIGGTNDRAPGVPARFSGSLLGGKAALTISGAQPEDEAIYFCALWFSNHWVFGGGTKLTVL
notes: Humanized
koff [1]: 0.00042 s⁻¹
kon [1]: 346000 M⁻¹ s⁻¹
koff [2]: 0.000407 s⁻¹
kon [2]: 369000 M⁻¹ s⁻¹
koff [3]: 0.000463 s⁻¹
kon [3]: 446000 M⁻¹ s⁻¹
koff [4]: 0.000422 s⁻¹
kon [4]: 226000 M⁻¹ s⁻¹
Kd [5]: 1.21 nM
Kd [6]: 1.1 nM
Kd [7]: 1.04 nM
Kd [8]: 1.86 nM

B3: m/h 144J171G (antibody, human IgG1, lambda, V domains shown)
VH: EVQLQQSGAELVEPGASVKLSCTASGFNIKDTYINWVKQRPEQGLEWIGRIDPANGYTRYAPKFQGKATITSDTSSNTAYLQLSSLTSEDAAVYSCSTLNYYGSSFFFDFWGQGTTLTVSS
VL: QAVVTQESALTTSPGETVTLTCRSSTGAVTTSNYANWVQEKPDHLFTGLIGGTNNRAPGVPARFSGSLIGDKAALTITGAQTEDEAIYFCALWYSNHWVFGGGTKLTVLG
notes: Mouse VH/VL joined to human IgG1 constant and human Ig lambda (IGLC2) constant; also called chimeric mouse/human 144J171G
Kd [9]: 7.01 nM
koff [9]: 0.00868 s⁻¹
kon [9]: 1.24e+06 M⁻¹ s⁻¹
IC50 of IL-8 secretion, HaCaT, 10 nM human IL-36γ, FIG. 1E [10]: 19.4 nM
IC50 of IL-8 secretion, HaCaT, 10 nM cynomolgus IL-36γ, FIG. 2C [11]: 44.4 nM
IC50 of IL-8 secretion, HaCaT, 10 nM cynomolgus IL-36α, FIG. 2A [12]: 19.3 nM
IC50 of IL-8 secretion, HaCaT, 10 nM human IL-36α, FIG. 1B [13]: 39.2 nM

B4: m/h 144D666C (antibody, human IgG1, lambda, V domains shown)
VH: EVQLQQSGAELVKPGASVKLTCTASGFNIKDTYIYWVKQRPAQGLEWIGRIDPANAYTKFDPKFQGKATLTADTSSNTAYLQLSSLTSEDTAVYYCTRFHWYGSSFFFDYWGQGTTLTVSS
VL: QAVVTQESALTTSPGETVTLTCRSSTGAVTTSNYANWVQEKPDHLFTGLIGGTDNRPPGVPARFSGSLIGDKAALTITGAQTEDEAIYFCALWYSNLWVFGGGTKLTVLG
notes: Mouse VH/VL joined to human IgG1 constant and human Ig lambda (IGLC2) constant; also called chimeric mouse/human 144D666C
Kd [14]: 3.06 nM
koff [14]: 0.000342 s⁻¹
kon [14]: 112000 M⁻¹ s⁻¹
Kd [9]: 1.75 nM
koff [9]: 0.000834 s⁻¹
kon [9]: 476000 M⁻¹ s⁻¹
Kd [15]: 25.1 nM
koff [15]: 0.00219 s⁻¹
kon [15]: 87300 M⁻¹ s⁻¹
IC50 of IL-8 secretion, primary human monocytes, 6 nM human IL-36γ, FIG. 5C [16]: 9.02 nM
IC50 of IL-8 secretion, primary human monocytes, 50 nM human IL-36γ, FIG. 5D [16]: 38.1 nM

B5: 144J171G (antibody, V domains shown)
VH: EVQLQQSGAELVEPGASVKLSCTASGFNIKDTYINWVKQRPEQGLEWIGRIDPANGYTRYAPKFQGKATITSDTSSNTAYLQLSSLTSEDAAVYSCSTLNYYGSSFFFDFWGQGTTLTVSS
VL: QAVVTQESALTTSPGETVTLTCRSSTGAVTTSNYANWVQEKPDHLFTGLIGGTNNRAPGVPARFSGSLIGDKAALTITGAQTEDEAIYFCALWYSNHWVFGGGTKLTVL
IC50 of IL-8 secretion, HaCaT, 10 nM human IL-36γ, FIG. 1E [10]: 19.2 nM
IC50 of IL-8 secretion, HaCaT, 10 nM cynomolgus IL-36γ, FIG. 2C [11]: 82.7 nM
IC50 of IL-8 secretion, HaCaT, 10 nM cynomolgus IL-36α, FIG. 2A [12]: 16.8 nM
IC50 of IL-8 secretion, HaCaT, 10 nM human IL-36α, FIG. 1B [13]: 27 nM
IC50 of IL-8 secretion, primary human monocytes, 50 nM human IL-36γ, FIG. 5D [16]: 113 nM

B6: m/h 144L249B (antibody, human IgG1, lambda, V domains shown)
VH: EVQLQQSGAELVKPGASVKLSCTASGFNIKDTYIYWVKQRPEQGLEWIGRIDPAIGTTRYDPKFQGKATLTADTSSNTAFLQLSSLTSEDTAVYYCARYDYSGSSFYFDYWGRGTTLTVSS
VL: QAVVTQESALTTSPGETVTLTCRSSTGAVTTSNYANWVQEKPDHLFTGLIGGTNNRAPGVPARFSGSLIGDKAALTITGAQTEDEAIYFCALWYSNHLVFGGGTKLTVLG
notes: Mouse VH/VL joined to human IgG1 constant and human Ig lambda (IGLC2) constant; also called chimeric mouse/human 144L249B
Kd [9]: 1.02 nM
koff [9]: 0.000825 s⁻¹
kon [9]: 805000 M⁻¹ s⁻¹
IC50 of IL-8 secretion, primary human monocytes, 40 nM human IL-36α, FIG. 5B [17]: 38.3 nM

B7: m/h 144L124B (antibody, human IgG1, lambda, V domains shown)
VH: EVQLQQSGAELVKPGASVKLSCTASGFNIKDTYIYWVKQRPEQGLEWIGRIDPANGYTRYDPKFQGKATMTADTSSNTAYLQLSSLTSEDTAVYYCARYEYYDSSFYFDYWGQGTTLTVSS
VL: QAVVTQESALTTSPGETVTLTCRSSTGAVTTSNYANWVQEKPDHLFTGLIGGTNNRAPGVPARFSGSLIGDKAALTITGAQTEDEAIYFCALWYSNHLVFGGGTKLTVLG
notes: Mouse VH/VL joined to human IgG1 constant and human Ig lambda (IGLC2) constant; also called chimeric mouse/human 144L124B
Kd [9]: 1.86 nM
koff [9]: 0.0227 s⁻¹
kon [9]: 1.22e+07 M⁻¹ s⁻¹
IC50 of IL-8 secretion, primary human monocytes, 40 nM human IL-36α, FIG. 5B [17]: 27.5 nM
